Measured values taken from patent publication EP1007666B1 (GENENTECH, INC., dated 2005).
Values belong to the binder of their own block, whether it stands above or below them.

Experiments:
[1] = target: T1, rat NTNRα-IgG (soluble rNTNRα, product of pRK-rNTNRα-IgG) (rat); assay: equilibrium binding of 125I-NTN with cold ligand to soluble NTNRα-IgG, protein A Sepharose precipitation, IGOR fit
T1 construct: Used as conditioned medium of transiently transfected 293 cells; also called soluble rNTNRα protein; rat fusion protein

[2] = target: T2, human NTNRα-IgG (soluble human NTNRα, product of pRK-hNTNRα-IgG) (human); assay: equilibrium binding of 125I-NTN with cold ligand to soluble NTNRα-IgG, protein A Sepharose precipitation, IGOR fit (data not shown)
T2 construct: Used as conditioned medium of transiently transfected 293 cells; also called recombinant soluble human NTNRα; hNTNRα fusion

[3] = target: T1, rat NTNRα-IgG (soluble rNTNRα, product …); assay: equilibrium binding of 125I-NTN with cold ligand to soluble NTNRα-IgG, protein A Sepharose precipitation, IGOR fit; Scatchard inset of Fig. 6C
[4] = target: T3, recombinant soluble rat GDNFRα (rat, UniProt Q62997 25-430, limits assumed); assay: displaceable equilibrium binding of 125I-rGDNF to recombinant soluble rGDNFRα; Scatchard inset of Fig. 6B
T3 construct: also called rGDNFRα; GFR-alpha-1
T3 sequence (looked up): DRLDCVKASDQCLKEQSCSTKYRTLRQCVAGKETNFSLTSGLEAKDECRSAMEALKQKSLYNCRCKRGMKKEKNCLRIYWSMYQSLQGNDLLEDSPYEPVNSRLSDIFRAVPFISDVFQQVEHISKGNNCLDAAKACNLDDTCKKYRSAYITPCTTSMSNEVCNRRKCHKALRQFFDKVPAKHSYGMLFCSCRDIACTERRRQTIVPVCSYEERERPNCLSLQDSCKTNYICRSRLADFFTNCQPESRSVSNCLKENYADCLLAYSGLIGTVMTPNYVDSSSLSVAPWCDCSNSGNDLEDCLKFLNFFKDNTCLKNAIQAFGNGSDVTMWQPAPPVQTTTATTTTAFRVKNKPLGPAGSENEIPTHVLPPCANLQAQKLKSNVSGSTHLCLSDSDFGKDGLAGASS

[5] = target: T1, rat NTNRα-IgG (soluble rNTNRα, product …); assay: binding experiments with biotinylated ligand, format not described

B3: rat GDNF (ligand, UniProt Q07731 78-211, looked up)
chain: SPDKQAAALPRRERNRQAAAASPENSRGKGRRGQRGKNRGCVLTAIHLNVTDLGLGYETKEELIFRYCSGSCEAAETMYDKILKNLSRSRRLTSDKVGQACCRPVAFDDDLSFLDDSLVYHILRKHSAKRCGCI
modifications: 125I: iodinated either on tyrosine by the Bolton Hunter method or on lysine using lactoperoxidase
notes: also called rGDNF
- Kd [4]: 3 pM

B4: GDNF, species not stated at these places (ligand)
chain: SPDKQAAALPRRERNRQAAAASPENSRGKGRRGQRGKNRGCVLTAIHLNVTDLGLGYETKEELIFRYCSGSCEAAETMYDKILKNLSRSRRLTSDKVGQACCRPVAFDDDLSFLDDSLVYHILRKHSAKRCGCI
modifications: Biotinylated in the paragraph 22 experiment; natural form is a disulfide-linked homodimer
notes: also called biotinylated GDNF
- Kd [5]: > 1 mM

Further lines, results first:

- Kd [1]: ~0.01 nM
- Kd [2]: ~0.01 nM
B1: human Neurturin (ligand, UniProt Q99748 96-197, looked up)
chain: ARLGARPCGLRELEVRVSELGLGYASDETVLFRYCAGACEAAARVYDLGLRRLRQRRRLRRERVRAQPCCRPTAYEDEVSFLDAHSRYHTVHELSARECACV
modifications: 125I-labelled in the direct binding assays; unlabelled as cold competitor
notes: also called human NTN; hNTN

- Kd [2]: ~0.01 nM
- Kd [3]: ~0.01 nM
B2: mouse Neurturin (ligand, UniProt P97463 96-195, looked up)
chain: PGARPCGLRELEVRVSELGLGYTSDETVLFRYCAGACEAAIRIYDLGLRRLRQRRRVRRERARAHPCCRPTAYEDEVSFLDVHSRYHTLQELSARECACV
modifications: 125I-labelled in the direct binding assays; unlabelled as cold competitor
notes: also called mouse NTN; mNTN
